Reference: US5705355A, “Hirudin, pharmaceutical compositions comprising it and their use” (Transgene, S.A., priority 1984, dated 1998)
Like-named read-outs stand apart in the source and are kept apart here.

What was measured:
DIC = conditions: rat, in vivo; cited from earlier work
[1] = test system: plasmin, chymotrypsin A, trypsin, papain, pepsin, subtilopeptidase A; conditions: cited from earlier work
thrombin [2] = target: T1, thrombin (Homo sapiens, UniProt P00734); conditions: cited from earlier work
[3] = in vivo; cited from earlier work
[4] = test system: rats, dogs, rabbits and mice; conditions: in vivo, iv; cited from earlier work
mice = conditions: cited from earlier work
thrombin [5] = target: T1, thrombin; conditions: first estimate; read-out: dissociation constant of the 1:1 thrombin-hirudin complex; cited from earlier work
[6] = heat / acid-heat treatment (70° C., pH 2.8, 15 min), antithrombin activity afterwards; type: physicochemical
Method: In order to characterize the hirudin obtained from E. coli, analysis was performed directly on culture samples after induction, which were heated to 70° C. for 15 min or heated to 70° C. after reduction of the pH to 2.8 with HCl.
In the latter case, the pH of the extract was brought back to neutral before being assayed. […] This can reflect either the degradation or the inactivation of constituents of the extract which inhibited the action of hirudin, or possibly the rather low pH and the heating stage may, in some cases, provide for a more complete reforming of the disulfide bridges which are needed for hirudin to show maximum activity. […]
When the labeled materials from non-induced PTG718 cultures and from cultures at 3 and 5 hours after induction are treated at 70° C. and at pH 2.8 for 15 min, centrifuged to remove the denatured proteins and analyzed on an SDS-polyacrylamide gel, it is clear that the bulk of the labeled E. coli proteins are removed from the sample (FIG. 9-- lanes 1 and 2). […]
Another portion, is adjusted to pH 2.8 with dilute HCl, and then heated to 70° C. for 15 minutes. […] The supernatant is neutralized by adding dilute NaOH and the antithrombin activity is then measured. After the small modifications in volume due to the acidification and neutralization are taken into account, it can be calculated that 100% of the original activity survives this acid/heat treatment. […]

rabbits = conditions: intravenously and subcutaneously; cited from earlier work

## hirudin
DIC
  treating DIC compared with heparin: far superior to heparin
[1]; chymotrypsin A
  hirudin activity on digestion with chymotrypsin A: resisted
[1]; papain
  hirudin activity on digestion with papain: sensitive
[1]; pepsin
  hirudin activity on digestion with pepsin: sensitive
[1]; plasmin
  hirudin activity on digestion with plasmin: resisted
[1]; subtilopeptidase A
  hirudin activity on digestion with subtilopeptidase A: sensitive
[1]; trypsin
  hirudin activity on digestion with trypsin: resisted
Thrombin [2]; after further stages of purification
  specific activity: 10,400 U/mg
Thrombin [2]; hirudin extracted from whole leeches
  specific activity: 6,500 anti-thrombin units per milligram
Thrombin [2]; purified approximately 650 times from heads of leeches
  specific activity: 8,500 units per milligram
Thrombin [2]; sulfate ester (Tyr 63) made to disappear completely
  activity relative to the initial hirudin activity: 55%
[3]
  elimination: rapidly eliminated
[4]
  tolerance: well tolerated
mice
  LD50: > 500,000 U/kg of body weight
  tolerated dose: up to 1 g per kg
mice; repeated injections over a period of two weeks
  sensitization reactions: do not lead to sensitization reactions
mice; same value expressed by weight
  LD50: > 60 mg/kg
Thrombin [5]
  Kd: 0.08 nM
[6]
  resistance to heat treatment under conditions of quite low pH: resistance to heat treatment
[6]; 70° C. for 15 min, or 70° C. after reduction of the pH to 2.8
  loss in activity after heat or acid/heat treatment: no loss in activity
rabbits
  tolerated dose: up to 10 mg/kg
